Experimental data taken from US20220000982A1 (Novo Nordisk, published 2022).
*1 amine or outer side, *2 acyl side, *3 side chain or, on linkers, in order; H or OH if unused. Where no end group is shown, it is not given here. Side-chain parts run from the residue outwards. [ ]: non-standard residue; d: D form. The star is where a group is joined. C20 diacid = O=C(O)CCCCCCCCCCCCCCCCCCC(=O)*; C18 diacid = O=C(O)CCCCCCCCCCCCCCCCC(=O)*; γGlu = O=C(O)[C@H](CCC(=O)[*:2])N[*:1]; Trx = NC[C@H]1CC[C@H](C(=O)O)CC1; Nle = CCCC[C@H](N)C(=O)O; AEEA = NCCOCCOCC(=O)O; Aib = CC(C)(N)C(=O)O

Legend:
Assay in all cases: cell-based or functional assay
human glucagon receptor = human glucagon receptor (human, UniProt P47871 26-477)
Chain of human glucagon receptor (P47871 26-477): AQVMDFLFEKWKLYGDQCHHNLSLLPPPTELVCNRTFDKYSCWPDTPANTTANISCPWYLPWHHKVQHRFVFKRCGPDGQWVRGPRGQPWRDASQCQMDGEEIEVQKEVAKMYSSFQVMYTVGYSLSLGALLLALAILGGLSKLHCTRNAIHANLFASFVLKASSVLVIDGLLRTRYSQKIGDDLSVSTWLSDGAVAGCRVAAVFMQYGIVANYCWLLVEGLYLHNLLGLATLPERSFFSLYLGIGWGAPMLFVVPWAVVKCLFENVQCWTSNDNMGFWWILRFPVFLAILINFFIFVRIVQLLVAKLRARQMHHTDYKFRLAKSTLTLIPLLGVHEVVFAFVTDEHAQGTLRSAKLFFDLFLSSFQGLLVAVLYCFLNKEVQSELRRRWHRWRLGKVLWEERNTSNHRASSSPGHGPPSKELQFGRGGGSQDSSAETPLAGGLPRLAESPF

human GLP-1 receptor = human GLP-1 receptor (human, UniProt P43220 24-463)
human GIP receptor = molecular target: T1, human GIP receptor (human, UniProt P48546 22-466)
T1 sequence (looked up): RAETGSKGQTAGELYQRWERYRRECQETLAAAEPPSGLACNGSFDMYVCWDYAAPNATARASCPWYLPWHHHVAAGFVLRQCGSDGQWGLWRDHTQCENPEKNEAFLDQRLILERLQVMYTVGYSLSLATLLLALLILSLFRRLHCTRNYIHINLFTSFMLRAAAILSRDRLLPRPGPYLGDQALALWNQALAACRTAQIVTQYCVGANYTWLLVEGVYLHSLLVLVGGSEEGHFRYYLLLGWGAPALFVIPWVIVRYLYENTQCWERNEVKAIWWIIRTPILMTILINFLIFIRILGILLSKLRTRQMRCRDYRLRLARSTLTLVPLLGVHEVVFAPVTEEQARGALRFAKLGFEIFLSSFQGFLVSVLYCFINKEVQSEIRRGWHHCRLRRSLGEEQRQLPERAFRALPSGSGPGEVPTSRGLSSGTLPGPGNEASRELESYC

Molecule	EC50, hGIP-R CRE Luc, 0.2% HSA (human GIP receptor) [nM]	other results
hGIP(1-42) (from UniProt P09681 52-93) (ligand)	–	EC50, hGcg-R CRE Luc, 0.2% HSA (human glucagon receptor): > 100 nM; EC50, hGLP-1-R CRE Luc, 0.2% HSA (human GLP-1 receptor): > 100 nM
Ac-[dY][Aib]EGTFISDYSIA[Nle]DKIRQQDFVK([γGlu-γGlu-γGlu-C18 diacid])WLLAQKP-NH2	0.0212	EC50, hGLP-1-R CRE Luc, 0.2% HSA (human GLP-1 receptor): > 100 nM
Y[Aib]EGTFISDYSIA[Nle]DAIRQQDFVK([γGlu-γGlu-γGlu-Trx-C20 diacid])WLLAQKG	0.266	–
Y[Aib]EGTFISDYSIA[Nle]DKIRQQDFVK([γGlu-γGlu-γGlu-Trx-C20 diacid])WLLAQKG	0.0721	–
Y[Aib]EGTFISDYSIA[Nle]DKIRQEDFVK([γGlu-γGlu-γGlu-Trx-C20 diacid])WLLAQKG	0.252	–
Ac-[dY]AEGTFISDYSIA[Nle]DKIHQ[Aib]DFVK([γGlu-γGlu-γGlu-Trx-C20 diacid])WLLAQKG	0.153	–
YAEGTFISDYSIAMDKIHQQDFVNWLLAQKG (ligand) [hGIP(1-31)]	0.00224	–
Y[Aib]EGTFISDYSIA[Nle]DKIRQQDFVK([AEEA-AEEA-γGlu-Trx-C20 diacid])WLLAQKGKEEDWKHNITQ	0.014	–
Y[Aib]EGTFISDYSIA[Nle]DKIHQQDFVK([γGlu-γGlu-γGlu-C18 diacid])WLLAQKG	0.0499	EC50, hGcg-R CRE Luc, 1% HSA (*) (human glucagon receptor): > 100 nM; EC50, hGLP-1-R CRE Luc, 1% HSA (*) (human GLP-1 receptor): > 100 nM
Y[Aib]EGTFISDYSIA[Nle]DAIRQQDFVK([γGlu-γGlu-γGlu-C18 diacid])WLLAQKG	0.0725	–
Ac-[dY]AEGTFISDYSIA[Nle]DKIRQQDFVK([γGlu-γGlu-γGlu-Trx-C20 diacid])WLLAQKG	0.18	–
Ac-[dY]AEGTFISDYSIA[Nle]DKIRQQDFVK([AEEA-AEEA-γGlu-C18 diacid])WLLAQKG	0.0304	–
Y[Aib]EGTFISDYSIA[Nle]DKIHQEDFVK([γGlu-γGlu-γGlu-γGlu-C18 diacid])WLLAQKG	0.158	–
Y[Aib]EGTFISDYSIA[Nle]DKIRQQDFVK([γGlu-γGlu-γGlu-C18 diacid])WLLAQKGKENDWKHNITQ	0.0201	EC50, hGcg-R CRE Luc, 1% HSA (*) (human glucagon receptor): > 100 nM; EC50, hGLP-1-R CRE Luc, 1% HSA (*) (human GLP-1 receptor): > 100 nM
Ac-[dY]AEGTFISDYSIA[Nle]DKIRQQDFVK([γGlu-γGlu-γGlu-C18 diacid])WLLAQKG	0.0489	–
Y[Aib]EGTFISDYSIA[Nle]DKIHQEDFVK([γGlu-γGlu-γGlu-γGlu-Trx-C20 diacid])WLLAQKG	0.81	–
Y[Aib]EGTFISDYSIA[Nle]DKIHQQDFVK([AEEA-AEEA-γGlu-C18 diacid])WLLAQKGKEEDWKHNITQ	0.00545	EC50, hGcg-R CRE Luc, 0.2% HSA (human glucagon receptor): > 100 nM; EC50, hGLP-1-R CRE Luc, 0.2% HSA (human GLP-1 receptor): > 100 nM
Ac-[dY]AEGTFISDYSIA[Nle]DKIHQEDFVK([γGlu-γGlu-γGlu-Trx-C20 diacid])WLLAQKG	0.547	–

Molecule	EC50, hGIP-R CRE Luc, 0.2% HSA (human GIP receptor) [nM]	other results
Ac-[dY]AEGTFISDYSIA[Nle]DKIRQQDFVK([AEEA-AEEA-γGlu-γGlu-γGlu-C18 diacid])WLLAQKG	0.0431	–
Ac-[dY]AEGTFISDYSIADDKIRQEDFVK([AEEA-AEEA-γGlu-C18 diacid])WLLAQKG	0.0915	–
HAEGTFTSDVSSYLEGQAAKEFIAWLVKGRG (ligand) [hGLP-1(7-37)]	> 100	–
Y[Aib]EGTFISDYSIA[Nle]DKIRQ[Aib]DFVK([γGlu-γGlu-γGlu-C18 diacid])WLLAQKG	0.0094	–
Y[Aib]EGTFISDYSIA[Nle]DKIRQQDFVK([AEEA-AEEA-γGlu-Trx-C20 diacid])WLLAQKG	0.0447	–
Ac-[dY][Aib]EGTFISDYSIA[Nle]DKIHQQDFVK([γGlu-γGlu-γGlu-Trx-C20 diacid])WLLAQKP-NH2	0.0384	–
Ac-[dY][Aib]EGTFISDYSIA[Nle]DKIRQQDFVK([γGlu-γGlu-γGlu-γGlu-Trx-C20 diacid])WLLAQKP-NH2	0.0261	EC50, hGcg-R CRE Luc, 1% HSA (*) (human glucagon receptor): > 100 nM; EC50, hGLP-1-R CRE Luc, 1% HSA (*) (human GLP-1 receptor): > 10 nM
Y[Aib]EGTFISDYSIA[Nle]DKIRQEDFVK([γGlu-γGlu-γGlu-C18 diacid])WLLAQKG	0.0629	–
Ac-[dY]AEGTFISDYSIA[Nle]DKIRQQDFVK([γGlu-γGlu-γGlu-Trx-C20 diacid])WLLAQKP-NH2	0.0762	–
Y[Aib]EGTFISDYSIA[Nle]DKIHQQDFVK([γGlu-γGlu-γGlu-C18 diacid])WLLAQKGKENDWKHNITQ	0.0213	EC50, hGcg-R CRE Luc, 1% HSA (*) (human glucagon receptor): > 100 nM; EC50, hGLP-1-R CRE Luc, 1% HSA (*) (human GLP-1 receptor): > 100 nM
Ac-YAEGTFISDYSIA[Nle]DKIRQQDFVK([γGlu-γGlu-γGlu-C18 diacid])WLLAQKG	0.546	–
Y[Aib]EGTFISDYSIA[Nle]DKIRQQDFVK([γGlu-γGlu-γGlu-Trx-C20 diacid])WLLAQKGKEEDWKHNITQ	0.022	–
Y[Aib]EGTFISDYSIA[Nle]DKIRQ[Aib]DFVK([γGlu-γGlu-γGlu-Trx-C20 diacid])WLLAQKG	0.0712	–
Ac-[dY]AEGTFISDYSIA[Nle]DKIHQQDFVK([γGlu-γGlu-γGlu-Trx-C20 diacid])WLLAQKP-NH2	0.0712	–
Y[Aib]EGTFISDYSIA[Nle]DKIRQQDFVK([γGlu-γGlu-γGlu-Trx-C20 diacid])WLLAQKP-NH2	0.0615	–
Ac-[dY]AEGTFISDYSIA[Nle]DKIRQEDFVK([AEEA-AEEA-γGlu-C18 diacid])WLLAQKG	0.025	–
Y[Aib]EGTFISDYSIA[Nle]DKIHQQDFVK([γGlu-γGlu-γGlu-Trx-C20 diacid])WLLAQKP-NH2	0.0675	–
